Test results taken from the supplement of paper PMC10065799, “High-throughput profiling of sequence recognition by tyrosine kinases and SH2 domains using bacterial peptide display” (eLife, 2023).
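Also: 11-residue human phosphosite peptides and single-mutation variants displayed on the E. coli surface, counted by deep sequencing, each peptide's frequency after selection divided by its frequency in the unselected input library; frequency after pTyr selection over input frequency; kinase dosed for 20-30% of maximal phosphorylation in three min.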

These sequences were tested against MERTK (UniProt Q12866) (assay: phosphorylation enrichment, bacterial display (enrichment ratio); higher = better substrate or ligand; peptides without Tyr show the background).
Chain of MERTK (Q12866 whole entry, looked up): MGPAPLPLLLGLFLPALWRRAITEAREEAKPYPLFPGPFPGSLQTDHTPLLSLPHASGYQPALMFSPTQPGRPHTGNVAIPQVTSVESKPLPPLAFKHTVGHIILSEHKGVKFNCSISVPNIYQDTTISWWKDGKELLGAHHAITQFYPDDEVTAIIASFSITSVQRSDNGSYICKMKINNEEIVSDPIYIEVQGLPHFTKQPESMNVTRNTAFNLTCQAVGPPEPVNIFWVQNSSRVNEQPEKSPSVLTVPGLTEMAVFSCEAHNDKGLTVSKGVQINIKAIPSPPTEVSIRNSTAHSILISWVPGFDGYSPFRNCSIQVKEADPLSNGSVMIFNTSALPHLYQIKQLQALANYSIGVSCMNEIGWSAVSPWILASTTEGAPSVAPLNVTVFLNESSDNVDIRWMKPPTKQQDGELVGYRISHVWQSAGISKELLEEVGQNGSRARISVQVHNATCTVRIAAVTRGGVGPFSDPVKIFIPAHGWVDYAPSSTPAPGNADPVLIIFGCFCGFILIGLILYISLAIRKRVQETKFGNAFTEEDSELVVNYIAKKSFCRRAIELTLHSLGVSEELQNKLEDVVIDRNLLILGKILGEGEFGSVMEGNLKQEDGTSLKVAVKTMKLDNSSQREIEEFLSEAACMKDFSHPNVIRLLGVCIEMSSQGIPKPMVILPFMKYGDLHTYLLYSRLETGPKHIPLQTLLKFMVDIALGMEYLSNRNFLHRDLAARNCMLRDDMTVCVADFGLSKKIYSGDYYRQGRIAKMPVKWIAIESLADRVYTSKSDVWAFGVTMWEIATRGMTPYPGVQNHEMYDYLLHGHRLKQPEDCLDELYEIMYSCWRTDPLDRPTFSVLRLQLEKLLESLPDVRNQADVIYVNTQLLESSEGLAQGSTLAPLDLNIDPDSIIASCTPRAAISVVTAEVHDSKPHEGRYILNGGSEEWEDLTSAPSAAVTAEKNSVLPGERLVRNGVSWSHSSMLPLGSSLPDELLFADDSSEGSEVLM
VEDHFYEGGIG [TKT_Y564_YF] was tested, and the phosphorylation enrichment was 0.575. For SVNIRYLLFPS [SERAC1_Y548], the phosphorylation enrichment was 0.46. With KLADVYQAELR [GFAP_Y116] the phosphorylation enrichment was 0.429. Sequence ATDLAYYLVCK [ASL_Y375_R379C] has a phosphorylation enrichment of 0.884. NTVLGYFIGCI [GARS1_Y408_R412C] was tested, and the phosphorylation enrichment was 0.381. FTHSDYQFGQR [PKP2_Y166_S169G_YF] showed a phosphorylation enrichment of 0.469. Sequence NGPDVYVLPVT [AATK_Y93_L97V] has a phosphorylation enrichment of 2.73. EFLKNYFTDKA [DSG2_Y775_R773K] showed a phosphorylation enrichment of 0.531. VHKEGYNKLNQ [ZNF676_Y98] gave a phosphorylation enrichment of 0.426. For VDSNPYSRLVA [UBA5_Y53_M57V], the phosphorylation enrichment was 0.445. Sequence VDSAHYKLLET [DTX3L_Y385] has a phosphorylation enrichment of 0.419. Work on SEDANYMRVSC [TTC3_Y1288_K1289M] yielded a phosphorylation enrichment of 0.455. With KVITDYFVDMK [MPP4_Y566_YF] the phosphorylation enrichment was 0.439. Work on AKQVGCENAGT [PC_Y304_Y304C] yielded a phosphorylation enrichment of 0.442. TFAVSYLPDMS [FLNC_Y1602_T1599A_YF] gave a phosphorylation enrichment of 0.441. Work on SSAETYSRMRL [NBEAL2_Y1835] yielded a phosphorylation enrichment of 0.412. AVAFLYFKSIG [ADGRL4_Y301_V300L_YF] gave a phosphorylation enrichment of 0.478. With TLQSMSGCDVG [HLA-B_Y123_Y123S] the phosphorylation enrichment was 0.421. SVTCTYSPAPN [TP53_Y126_L130P] gave a phosphorylation enrichment of 0.362. For FSGIFYKPESL [L2HGDH_Y103_H98Y_YF], the phosphorylation enrichment was 0.431. GPKSTYISSAG [GOLGA5_Y62_A67G] gave a phosphorylation enrichment of 0.389. With QGLRLYRSHLA [BTK_Y617_P619S] the phosphorylation enrichment was 0.417. Work on VISNAYVDLSP [HSD17B4_Y602_A606S] yielded a phosphorylation enrichment of 0.518. For YLGEEYVKAVG [TF_Y674], the phosphorylation enrichment was 0.403. QKLPSYILENN [VPS13B_Y2774] showed a phosphorylation enrichment of 0.529. VFDMLYQLANL [USP24_Y1087] gave a phosphorylation enrichment of 2.5. Work on VNKIYHPDFIV [LIG3_Y768_Y768H] yielded a phosphorylation enrichment of 0.483. FADIAYNFRHR [PAH_Y166_G171R_YF] showed a phosphorylation enrichment of 0.405. With KVALVYGQMNE [ATP5F1B_Y269] the phosphorylation enrichment was 0.38. FARNCYVAGQF [G6PD_Y107_S106C_YF] was tested, and the phosphorylation enrichment was 0.363. With IFGVSYDEFRF [CFTR_Y512_YF] the phosphorylation enrichment was 0.671. HLLRIYFDITD [MMP27_Y307_W304L_YF] gave a phosphorylation enrichment of 0.568. Work on STTSDYQWDFS [MTDH_Y364_V368F] yielded a phosphorylation enrichment of 0.409.

What follows are sequences tested on AncSZ in the same assay as above.
Work on VEDHFYEGGIG [TKT_Y564_YF] yielded a phosphorylation enrichment of 1.24. For SVNIRYLLFPS [SERAC1_Y548], the phosphorylation enrichment was 1.08. Work on KLADVYQAELR [GFAP_Y116] yielded a phosphorylation enrichment of 0.789. Work on ATDLAYYLVCK [ASL_Y375_R379C] yielded a phosphorylation enrichment of 2.13. NTVLGYFIGCI [GARS1_Y408_R412C] showed a phosphorylation enrichment of 1.19. For FTHSDYQFGQR [PKP2_Y166_S169G_YF], the phosphorylation enrichment was 0.697. NGPDVYVLPVT [AATK_Y93_L97V] gave a phosphorylation enrichment of 1.79. For EFLKNYFTDKA [DSG2_Y775_R773K], the phosphorylation enrichment was 0.847. VHKEGYNKLNQ [ZNF676_Y98] was tested, and the phosphorylation enrichment was 0.55. Work on VDSNPYSRLVA [UBA5_Y53_M57V] yielded a phosphorylation enrichment of 0.743. Work on VDSAHYKLLET [DTX3L_Y385] yielded a phosphorylation enrichment of 0.665. For SEDANYMRVSC [TTC3_Y1288_K1289M], the phosphorylation enrichment was 1.03. For KVITDYFVDMK [MPP4_Y566_YF], the phosphorylation enrichment was 0.897. AKQVGCENAGT [PC_Y304_Y304C] gave a phosphorylation enrichment of 0.749. With TFAVSYLPDMS [FLNC_Y1602_T1599A_YF] the phosphorylation enrichment was 0.939. With SSAETYSRMRL [NBEAL2_Y1835] the phosphorylation enrichment was 0.513. With AVAFLYFKSIG [ADGRL4_Y301_V300L_YF] the phosphorylation enrichment was 1.14. TLQSMSGCDVG [HLA-B_Y123_Y123S] was tested, and the phosphorylation enrichment was 0.677. SVTCTYSPAPN [TP53_Y126_L130P] was tested, and the phosphorylation enrichment was 1.12. For FSGIFYKPESL [L2HGDH_Y103_H98Y_YF], the phosphorylation enrichment was 0.968. Work on GPKSTYISSAG [GOLGA5_Y62_A67G] yielded a phosphorylation enrichment of 0.496. QGLRLYRSHLA [BTK_Y617_P619S] was tested, and the phosphorylation enrichment was 0.935. VISNAYVDLSP [HSD17B4_Y602_A606S] was tested, and the phosphorylation enrichment was 1.11. For YLGEEYVKAVG [TF_Y674], the phosphorylation enrichment was 0.908. QKLPSYILENN [VPS13B_Y2774] showed a phosphorylation enrichment of 1.53. Work on VFDMLYQLANL [USP24_Y1087] yielded a phosphorylation enrichment of 1.52. Sequence VNKIYHPDFIV [LIG3_Y768_Y768H] has a phosphorylation enrichment of 0.62. Sequence FADIAYNFRHR [PAH_Y166_G171R_YF] has a phosphorylation enrichment of 0.577. For KVALVYGQMNE [ATP5F1B_Y269], the phosphorylation enrichment was 0.785. FARNCYVAGQF [G6PD_Y107_S106C_YF] gave a phosphorylation enrichment of 0.983. With IFGVSYDEFRF [CFTR_Y512_YF] the phosphorylation enrichment was 1.07. HLLRIYFDITD [MMP27_Y307_W304L_YF] was tested, and the phosphorylation enrichment was 1.99. Work on STTSDYQWDFS [MTDH_Y364_V368F] yielded a phosphorylation enrichment of 1.36.

What follows are sequences tested against Hck (UniProt P08631) in the same assay as above.
Chain of Hck (P08631 whole entry, looked up): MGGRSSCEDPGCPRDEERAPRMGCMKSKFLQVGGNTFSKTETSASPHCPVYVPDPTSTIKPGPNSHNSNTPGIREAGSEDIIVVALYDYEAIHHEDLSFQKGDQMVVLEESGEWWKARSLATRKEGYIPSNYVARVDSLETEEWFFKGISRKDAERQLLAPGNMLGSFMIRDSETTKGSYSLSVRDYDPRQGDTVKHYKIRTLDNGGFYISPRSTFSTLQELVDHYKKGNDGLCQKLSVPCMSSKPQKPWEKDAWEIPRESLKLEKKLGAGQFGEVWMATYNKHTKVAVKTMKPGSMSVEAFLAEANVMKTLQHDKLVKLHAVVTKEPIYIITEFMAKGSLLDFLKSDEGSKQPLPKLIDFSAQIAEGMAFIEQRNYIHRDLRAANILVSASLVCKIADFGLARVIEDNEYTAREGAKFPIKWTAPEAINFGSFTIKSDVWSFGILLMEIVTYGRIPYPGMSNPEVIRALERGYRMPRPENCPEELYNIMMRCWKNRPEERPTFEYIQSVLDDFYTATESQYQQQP
VEDHFYEGGIG [TKT_Y564_YF] gave a phosphorylation enrichment of 0.538. Work on SVNIRYLLFPS [SERAC1_Y548] yielded a phosphorylation enrichment of 0.558. KLADVYQAELR [GFAP_Y116] was tested, and the phosphorylation enrichment was 0.47. With ATDLAYYLVCK [ASL_Y375_R379C] the phosphorylation enrichment was 1.02. Sequence NTVLGYFIGCI [GARS1_Y408_R412C] has a phosphorylation enrichment of 0.467. Work on FTHSDYQFGQR [PKP2_Y166_S169G_YF] yielded a phosphorylation enrichment of 0.518. NGPDVYVLPVT [AATK_Y93_L97V] showed a phosphorylation enrichment of 0.776. In the case of EFLKNYFTDKA [DSG2_Y775_R773K], the phosphorylation enrichment is reported as 0.556. In the case of VHKEGYNKLNQ [ZNF676_Y98], the phosphorylation enrichment is reported as 0.381. Sequence VDSNPYSRLVA [UBA5_Y53_M57V] has a phosphorylation enrichment of 1.21. VDSAHYKLLET [DTX3L_Y385] showed a phosphorylation enrichment of 0.543. In the case of SEDANYMRVSC [TTC3_Y1288_K1289M], the phosphorylation enrichment is reported as 0.563. In the case of KVITDYFVDMK [MPP4_Y566_YF], the phosphorylation enrichment is reported as 0.561. AKQVGCENAGT [PC_Y304_Y304C] showed a phosphorylation enrichment of 0.408. With TFAVSYLPDMS [FLNC_Y1602_T1599A_YF] the phosphorylation enrichment was 0.5. In the case of SSAETYSRMRL [NBEAL2_Y1835], the phosphorylation enrichment is reported as 0.709. AVAFLYFKSIG [ADGRL4_Y301_V300L_YF] was tested, and the phosphorylation enrichment was 0.516. TLQSMSGCDVG [HLA-B_Y123_Y123S] gave a phosphorylation enrichment of 0.482. SVTCTYSPAPN [TP53_Y126_L130P] was tested, and the phosphorylation enrichment was 0.501. FSGIFYKPESL [L2HGDH_Y103_H98Y_YF] was tested, and the phosphorylation enrichment was 0.393. Sequence GPKSTYISSAG [GOLGA5_Y62_A67G] has a phosphorylation enrichment of 0.319. In the case of QGLRLYRSHLA [BTK_Y617_P619S], the phosphorylation enrichment is reported as 0.38. Work on VISNAYVDLSP [HSD17B4_Y602_A606S] yielded a phosphorylation enrichment of 0.542. In the case of YLGEEYVKAVG [TF_Y674], the phosphorylation enrichment is reported as 0.329. In the case of QKLPSYILENN [VPS13B_Y2774], the phosphorylation enrichment is reported as 0.792. In the case of VFDMLYQLANL [USP24_Y1087], the phosphorylation enrichment is reported as 3.29. With VNKIYHPDFIV [LIG3_Y768_Y768H] the phosphorylation enrichment was 0.481. FADIAYNFRHR [PAH_Y166_G171R_YF] was tested, and the phosphorylation enrichment was 0.374. In the case of KVALVYGQMNE [ATP5F1B_Y269], the phosphorylation enrichment is reported as 1.05. Sequence FARNCYVAGQF [G6PD_Y107_S106C_YF] has a phosphorylation enrichment of 0.409. Sequence IFGVSYDEFRF [CFTR_Y512_YF] has a phosphorylation enrichment of 0.93. With HLLRIYFDITD [MMP27_Y307_W304L_YF] the phosphorylation enrichment was 0.733. STTSDYQWDFS [MTDH_Y364_V368F] showed a phosphorylation enrichment of 0.524.

What follows are sequences tested on Fer (mouse) in the same assay as above.
Work on VEDHFYEGGIG [TKT_Y564_YF] yielded a phosphorylation enrichment of 0.704. Work on SVNIRYLLFPS [SERAC1_Y548] yielded a phosphorylation enrichment of 0.469. For KLADVYQAELR [GFAP_Y116], the phosphorylation enrichment was 0.445. ATDLAYYLVCK [ASL_Y375_R379C] was tested, and the phosphorylation enrichment was 0.696. NTVLGYFIGCI [GARS1_Y408_R412C] gave a phosphorylation enrichment of 0.598. Work on FTHSDYQFGQR [PKP2_Y166_S169G_YF] yielded a phosphorylation enrichment of 0.453. NGPDVYVLPVT [AATK_Y93_L97V] was tested, and the phosphorylation enrichment was 0.453. In the case of EFLKNYFTDKA [DSG2_Y775_R773K], the phosphorylation enrichment is reported as 0.361. In the case of VHKEGYNKLNQ [ZNF676_Y98], the phosphorylation enrichment is reported as 0.367. VDSNPYSRLVA [UBA5_Y53_M57V] showed a phosphorylation enrichment of 0.785. In the case of VDSAHYKLLET [DTX3L_Y385], the phosphorylation enrichment is reported as 0.427. SEDANYMRVSC [TTC3_Y1288_K1289M] gave a phosphorylation enrichment of 0.645. With KVITDYFVDMK [MPP4_Y566_YF] the phosphorylation enrichment was 0.451. Work on AKQVGCENAGT [PC_Y304_Y304C] yielded a phosphorylation enrichment of 0.42. TFAVSYLPDMS [FLNC_Y1602_T1599A_YF] was tested, and the phosphorylation enrichment was 0.439. For SSAETYSRMRL [NBEAL2_Y1835], the phosphorylation enrichment was 0.54. Sequence AVAFLYFKSIG [ADGRL4_Y301_V300L_YF] has a phosphorylation enrichment of 0.605. TLQSMSGCDVG [HLA-B_Y123_Y123S] gave a phosphorylation enrichment of 0.499. With SVTCTYSPAPN [TP53_Y126_L130P] the phosphorylation enrichment was 0.503. With FSGIFYKPESL [L2HGDH_Y103_H98Y_YF] the phosphorylation enrichment was 0.471. With GPKSTYISSAG [GOLGA5_Y62_A67G] the phosphorylation enrichment was 0.345. In the case of QGLRLYRSHLA [BTK_Y617_P619S], the phosphorylation enrichment is reported as 0.527. VISNAYVDLSP [HSD17B4_Y602_A606S] gave a phosphorylation enrichment of 0.511. YLGEEYVKAVG [TF_Y674] showed a phosphorylation enrichment of 0.393. QKLPSYILENN [VPS13B_Y2774] was tested, and the phosphorylation enrichment was 0.681. For VFDMLYQLANL [USP24_Y1087], the phosphorylation enrichment was 14.1. For VNKIYHPDFIV [LIG3_Y768_Y768H], the phosphorylation enrichment was 0.388. FADIAYNFRHR [PAH_Y166_G171R_YF] gave a phosphorylation enrichment of 0.348. In the case of KVALVYGQMNE [ATP5F1B_Y269], the phosphorylation enrichment is reported as 0.525. FARNCYVAGQF [G6PD_Y107_S106C_YF] was tested, and the phosphorylation enrichment was 0.417. Work on IFGVSYDEFRF [CFTR_Y512_YF] yielded a phosphorylation enrichment of 1.52. Work on HLLRIYFDITD [MMP27_Y307_W304L_YF] yielded a phosphorylation enrichment of 0.846. For STTSDYQWDFS [MTDH_Y364_V368F], the phosphorylation enrichment was 0.598.
